Here are results for six molecules from US20110097340A1 (SCHERING, published 2011).

The target in assay [1] is T1, hVEGF121-G88S (human, UniProt P15692-9 27-147, G88S).
T1 construct: Transiently expressed in CHO-K1 cells; culture supernatant used
T1 sequence (looked up): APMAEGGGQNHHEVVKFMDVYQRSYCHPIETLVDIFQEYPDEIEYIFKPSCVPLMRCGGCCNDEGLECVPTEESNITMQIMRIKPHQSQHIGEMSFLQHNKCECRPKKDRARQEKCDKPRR
In words: sandwich ELISA, antibody coated. As to the method:
(§1) Mutants were transiently expressed in CHO-K1 cells, and cell supernatants were collected for binding analysis by ELISA.
(§2) The plate was blocked with 30% ChemiBlock™ reagent (Millipore) in PBS for one hour at room temperature, and 30, 60, or 100 μl of CHO-K1 culture supernatant for each mutant, or 1 μg/ml of wild-type hVEGF₁₂₁, recombinant hVEGF₁₆₅, or recombinant mVEGF₁₆₅, was added to appropriate wells. After one hour of incubation, the plate was washed and incubated with a biotinylated goat polyclonal anti-VEGF antibody for one hour at room temperature. Detection was performed with HRP-conjugated streptavidin, followed by TMB chromogenic substrate (Calbiochem) using manufacturer protocol.
For orientation: An ELISA detects its analyte on a solid surface through an enzyme-linked reagent.

Assay [2] concerns the target T2, murine VEGF165 (murine, UniProt Q00731-2 27-190).
T2 construct: also called mVEGF165; rMu-VEGF165
T2 sequence (looked up): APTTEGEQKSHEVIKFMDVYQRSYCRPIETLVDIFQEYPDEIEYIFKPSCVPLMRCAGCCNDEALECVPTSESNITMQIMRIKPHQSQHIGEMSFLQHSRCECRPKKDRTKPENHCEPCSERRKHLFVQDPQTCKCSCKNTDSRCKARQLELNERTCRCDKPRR
In words: sandwich ELISA, antibody coated. As to the method: as §1, §2

Assay [3] concerns the target T3, human VEGF165 (human, UniProt P15692 207-395). In words: sandwich ELISA, antibody coated. As to the method: as §1, §2
In assay [4] the target is T4, hVEGF121-M81A (human, UniProt P15692-9 27-147).
T4 construct: Transiently expressed in CHO-K1 cells; culture supernatant used
T4 sequence (looked up): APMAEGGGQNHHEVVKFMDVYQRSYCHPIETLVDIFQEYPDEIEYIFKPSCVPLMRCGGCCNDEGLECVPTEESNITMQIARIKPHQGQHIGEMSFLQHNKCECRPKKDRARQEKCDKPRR
In words: sandwich ELISA, antibody coated. As to the method:
as §1, §2

Assay [5] has as its target T5, hVEGF121-G92A (human, UniProt P15692-9 27-147, G92A).
T5 construct: Transiently expressed in CHO-K1 cells; culture supernatant used
T5 sequence (looked up): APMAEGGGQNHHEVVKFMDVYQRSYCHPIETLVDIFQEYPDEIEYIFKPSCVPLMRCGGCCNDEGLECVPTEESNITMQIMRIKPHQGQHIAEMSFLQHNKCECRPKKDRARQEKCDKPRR
In words: sandwich ELISA, antibody coated. Here is the method:
as §1, §2

For assay [6], the target named is T6, hVEGF121-Q89A (human, UniProt P15692-9 27-147, Q89A).
T6 construct: Transiently expressed in CHO-K1 cells; culture supernatant used
T6 sequence (looked up): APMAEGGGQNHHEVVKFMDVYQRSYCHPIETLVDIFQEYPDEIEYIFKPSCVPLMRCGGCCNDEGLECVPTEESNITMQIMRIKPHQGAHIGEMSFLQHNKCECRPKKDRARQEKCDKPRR
In words: sandwich ELISA, antibody coated. As to the method: as §1, §2

The target in assay [7] is T7, wild-type hVEGF121 (human, UniProt P15692-9 27-147).
T7 sequence (looked up): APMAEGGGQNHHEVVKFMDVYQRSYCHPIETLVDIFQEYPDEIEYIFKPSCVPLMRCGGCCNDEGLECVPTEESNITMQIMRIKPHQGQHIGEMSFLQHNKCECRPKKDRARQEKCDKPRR
In words: sandwich ELISA, antibody coated. Here is the method:
as §1, §2

Assay [8] has as its target T3, human VEGF165. In words: cell-based or functional assay.
Assay [9] concerns the target T3, human VEGF165. In words: Biacore (SPR). (SPR reads the build-up and loss of mass on a sensor chip optically.)
In assay [10] the target is T3, human VEGF165. In words: cell-based or functional assay. The source holds these as a separate data set.
Target sequence in this assay (P15692 other isoform, or with tags, fused parts or gaps limits assumed): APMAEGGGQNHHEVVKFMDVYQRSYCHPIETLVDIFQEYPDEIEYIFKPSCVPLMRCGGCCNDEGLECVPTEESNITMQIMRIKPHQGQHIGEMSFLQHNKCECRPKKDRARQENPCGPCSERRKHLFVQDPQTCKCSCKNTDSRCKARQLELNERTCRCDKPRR
In assay [11] the target is T3, human VEGF165. In words: Biacore 2000, hVEGF165 amine-coupled on C1 chip, antibody injected, 1:1 fit. As to the method: (§3) The VEGF binding affinity of these IgGs was tested on a Biacore 2000® by injecting the antibodies over a very low density antigen surface. Human or murine VEGF₁₆₅ was immobilized via standard amine coupling methods to flow cells on a C1 (planar carboxy surface) chip. Approximately 85 RU of each antigen was immobilized and a reference flow cell was activated and blocked. Antibodies were injected over the chip surface for 400 seconds at two different concentrations, after which dissociation was monitored. Data was analyzed by Scrubber® using double referencing and fitting with a 1:1 interaction. Regenerations were performed with 90 mM HCl with 500 mM NaCl.
Target sequence in this assay (P15692 other isoform, or with tags, fused parts or gaps limits assumed): as above

Assay [12] deals with T2, murine VEGF165. In words: Biacore 2000, mVEGF165 amine-coupled on C1 chip, antibody injected. Here is the method: as §3
The target of assay [13] is T3, human VEGF165. In words: ELISA on hVEGF165; unstressed XPA.10.064.06.
In assay [14] the target is T3, human VEGF165. In words: ELISA on hVEGF165; unstressed XPA.10.064.06. The source holds these as a separate data set.
Assay [15] addresses T3, human VEGF165. In words: ELISA on hVEGF165; XPA.10.064.06 after chemical stress (tBHP) in the presence of methionine. Here is the method: (§4) For chemical stress, the antibodies were incubated overnight at room temperature with 0.1% tBHP in the presence or absence of 5 mM L-methionine. For thermal stress, the antibodies were incubated in polysorbate for four weeks at 40° C. in the presence or absence of 5 mM L-methionine. The ability of the antibodies to bind hVEGF₁₆₅ was analyzed by Biacore and ELISA.

For assay [16], the target named is T3, human VEGF165. In words: ELISA on hVEGF165; XPA.10.064.06 after thermal stress in the presence of methionine. As to the method:
as §4

Assay [17] has as its target T3, human VEGF165. In words: ELISA on hVEGF165; XPA.10.064.06 after chemical stress (tBHP) without methionine. As to the method:
as §4

Assay [18] addresses T3, human VEGF165. In words: ELISA on hVEGF165; XPA.10.064.06 after thermal stress without methionine. Here is the method:
as §4

For “control polyclonal goat anti-human VEGF (antibody)”, the Raw data (ELISA signal) turned out to be 0.769 in [1]; 0.0939 in [2]; 2.45 in assay [3]; 1.71 in [4]; 2.18 in assay [5]; 0.985 in assay [6]. For the same molecule, in [7], the Raw data (ELISA signal) is 2.56. Further, the fold binding over CHO background was determined as 8.4 fold in assay [1]; 1 fold in assay [2]; 26.9 fold in [3]; 18.8 fold in assay [4]; 23.9 fold in assay [5]; 10.8 fold in assay [6]. The fold binding over CHO background in assay [7] stood at 28 fold.

B1: XPA.10.064 scFv-Fc (Fc fusion, part only; not given: linker, gamma-2 Fc, junction, not shown: another chain or arm of the molecule; a dimerising Fc or GST; small tags and cut ends)
VH: EVQLVQSGAEVRKPGASVKVSCKASGYSFTGHYIHWVRQAPGQGLEWMGWINPYSGGTNFPREFQGRVTMTRDTSVNTVYMELTRLTSDDTSVYYCARDHRIVGGLDYWGQGTLVTVSS
VL: SYVLTQPPSASGTPGQRVTISCSGSSSNIGINYVYWYQQLPGTAPKLLIYRNDQRPSGVPDRFSGSKSGTSASLAISGLRSEDEADYYCATWDDSLSGVVFGGGTKVTVL
On to B1, for which the HPP: sf21-hVEGF165, scFvFc (IC50) in assay [8] is 0.41 µg/mL.

B2: XPA.10.064 after oxidation with tert-butylhydroperoxide (antibody, V domains shown)
VH: EVQLVQSGAEVRKPGASVKVSCKASGYSFTGHYIHWVRQAPGQGLEWMGWINPYSGGTNFPREFQGRVTMTRDTSVNTVYMELTRLTSDDTSVYYCARDHRIVGGLDYWGQGTLVTVSS
VL: SYVLTQPPSASGTPGQRVTISCSGSSSNIGINYVYWYQQLPGTAPKLLIYRNDQRPSGVPDRFSGSKSGTSASLAISGLRSEDEADYYCATWDDSLSGVVFGGGTKVTVL
modifications: partial methionine oxidation after tBHP: Met-48 39%, Met-70 0%, Met-81 28%
notes: also called oxidized XPA.10.064
Take B2: the binding result in [9] is “binds”.

B3: XPA.10.064.07 IgG2 (antibody, V domains shown)
VH: EVQLVQSGAEVRKPGASVKVSCKASGYSFTGHYIHWVRQAPGQGLEWMGWINPYSGGTNFPREFQGRVTMTRDTSVNTVYMELTRLTSDDTSVYYCARDEMHVGGLDYWGQGTLVTVSS
VL: SYVLTQPPSASGTPGQRVTISCSGSSSNIGINYVYWYQQLPGTAPKLLIYRNDQRPSGVPDRFSGSKSGTSASLAISGLRSEDEADYYCATWDDSLSGVVFGGGTKVTVL
notes: IgG2
By Kd is commonly meant the free concentration of one partner at which half of the binding sites on the other are occupied at equilibrium, for simple one-to-one binding. Read a low Kd as higher affinity. The koff is the rate constant with which the complex falls apart. Read a high koff as fast dissociation. The term kon denotes the second-order rate constant of association. Low values mean slower complex formation, high ones faster complex formation. Turning to B3, the “HUVEC proliferation, geometric mean IC50” value in assay [10] was 0.129 nM. Moreover, in assay [11], the Kd stood at 0.0349 nM, the koff is 6.65e-06 s⁻¹ and the kon came out at 207000 M⁻¹ s⁻¹. In [12], this molecule yielded a Kd of 130 nM.

B4: XPA.10.064.06 IgG2 (antibody, V domains shown)
VH: EVQLVQSGAEVRKPGASVKVSCKASGYSFTGHYIHWVRQAPGQGLEWMGWINPYSGGTNFPREFQGRVTMTRDTSVNTVYMELTRLTSDDTSVYYCARDEMTRGGLDYWGQGTLVTVSS
VL: SYVLTQPPSASGTPGQRVTISCSGSSSNIGINYVYWYQQLPGTAPKLLIYRNDQRPSGVPDRFSGSKSGTSASLAISGLRSEDEADYYCATWDDSLSGVVFGGGTKVTVL
notes: IgG2
In general, EC50 (read off the curve) refers to the concentration needed to bring the measured effect to its halfway point. For the molecule B4, in [13], the “EC50 (read off the curve)” value is ~0.006 µg/mL. Besides, in [10], the “HUVEC proliferation, geometric mean IC50” value stood at 0.173 nM. Further, in assay [11], the Kd was found to be 0.121 nM, the koff amounted to 2.07e-05 s⁻¹ and the kon stood at 178000 M⁻¹ s⁻¹. For the same molecule, the Kd in assay [12] stood at 208 nM. Also, the “EC50 (read off the curve)” value in assay [14] is ~0.006 µg/mL.

B5: XPA.10.064.06 after oxidation (chemical stress with tBHP or thermal stress) (antibody, V domains shown)
VH: EVQLVQSGAEVRKPGASVKVSCKASGYSFTGHYIHWVRQAPGQGLEWMGWINPYSGGTNFPREFQGRVTMTRDTSVNTVYMELTRLTSDDTSVYYCARDEMTRGGLDYWGQGTLVTVSS
VL: SYVLTQPPSASGTPGQRVTISCSGSSSNIGINYVYWYQQLPGTAPKLLIYRNDQRPSGVPDRFSGSKSGTSASLAISGLRSEDEADYYCATWDDSLSGVVFGGGTKVTVL
modifications: partial methionine oxidation; after tBHP: Met-48 20%, Met-70 0%, Met-81 14%, Met-101 66%; degree after thermal stress not given
notes: also called oxidized XPA.10.064.06
Turning to B5, the “EC50 (read off the curve)” value in assay [15] is ~0.02 µg/mL; in [16], ~0.006 µg/mL; in assay [17] it was ~0.05 µg/mL; in assay [18] it was ~0.01 µg/mL.
